In general, stoichiometry N refers to the number of molecules, sites or subunits per partner or assembly. What is called Kd is the constant that tells how readily two partners part at equilibrium.

Drawing on article PMC12504095, this text covers stoichiometry N, Kd and percent DOPG-SEn-tPA complex (FITC-positive vesicles) for two substances.

Test [1] deals with Streptococcus pyogenes alpha-enolase (SEn) (S. pyogenes strain AP53) (UniProt P69949). The test can be described thus: cryo-EM structure; SEn reconstituted in DOPG vesicles, extruded to small unilamellar vesicles; octamer in the bilayer.
Test [2] has the same target. The test can be described thus: SPR; SEn immobilised on CM5 chip; tPA analyte 0-2000 nM in HBS-EP+ pH 7.4; 10 uL/min, 600 s association, 300 s dissociation; affinity (steady-state) fit. On the technique in general: In SPR one partner is held on a chip, and binding of the other changes the refractive index at the surface.
The target is the same in test [3]. The test can be described thus: flow cytometry on DOPG vesicles; SEn-constituted DOPG vesicles (BSA-blocked) incubated with 0.8 uM tPA in PBS for 1 h; mouse anti-tPA and Alexa Fluor 488 anti-mouse IgG. In general terms: Flow cytometry measures light scatter and fluorescence of single cells or particles in a stream.

Substance “Streptococcus pyogenes alpha-enolase (SEn) (from UniProt P69949 1-435) (enzyme)” showed a stoichiometry N in test [1] of 8.

On to “recombinant human tissue-type plasminogen activator (tPA) (enzyme)”, for which, in test [2], the Kd came to 161 nM. This substance displayed a percent DOPG-SEn-tPA complex (FITC-positive vesicles) in test [3] of 70%.
